The subject of the assay is primary human epidermal keratinocytes. The assay is described as follows: Keratinocyte dissociation (dispase) assay. It counts as cell-based. The settings on record: FIG. 5M-5O. As to the method: The keratinocyte dissociation assay was performed as previously described (Payne et al., 2005), using either PV scFv at 5 μg/mL or PV sera at dilutions of 1:5 to 1:7.5 in 500 μL total volume defined keratinocyte-serum free media (Gibco/Invitrogen). For antibodies that only recognize Dsg3, 1 μg/mL exfoliative toxin A (ETA) was added to wells for the last two hours. For antisera depletion assays, 200 μL of PV sera flowthrough (representing a volume of 100 μL, sera, combined with the first 1-volume fraction of the PBS wash) were incubated with cells in a total volume of 500 μL, with or without ETA treatment. Dissociation assays used the total eluate from the antisera columns, concentrated to a volume of 100 μl (representing a starting volume of 250 μL sera).
The question of whether the in vitro inhibition of Dsg binding by ELISA translated into a functional block of antibody pathogenicity was investigated. It was previously shown that neonatal mouse injection is suboptimal for evaluation of pathogenicity of PV mAbs, due to differences in the specificity of mAbs for human versus mouse Dsg substrates. Therefore, the inhibition of mAb pathogenicity was evaluated by a dispase assay using cultured primary human keratinocytes. […]

B1: Exfoliative toxin A: exfoliative toxin A, inactivates Dsg1 (protein, UniProt P09331 39-280, looked up)
Exfoliative toxin A: EVSAEEIKKHEEKWNKYYGVNAFNLPKELFSKVDEKDRQKYPYNTIGNVFVKGQTSATGVLIGKNTVLTNRHIAKFANGDPSKVSFRPSINTDDNGNTETPYGEYEVKEILQEPFGAGVDLALIRLKPDQNGVSLGDKISPAKIGTSNDLKDGDKLELIGYPFDHKVNQMHRSEIELTTLSRGLRYYGFTVPGNSGSGIFNSNGELVGIHSSKVSHLDREHQINYGVGIGNYVKRIINEKNE
With B1, the “pathogenicity in the keratinocyte dissociation (dispase) assay” value is recorded as “do not demonstrate significant pathogenicity”.

Values taken from patent US8298545B2, “Anti-autoimmune antibodies for treatment of pemphigus” (The Trustees of the University of Pennsylvania, priority 2007, dated 2012).
